B1: H4H13306P2 (antibody, human IgG4, V domains shown)
VH: EVQLVESGGGLVQPGTSLRLSCAASGFTFDDYAMHWVRQAPGKGLEWVSGITWNSYNIDYADSVKGRFTISRDNAKNSLYLQMNSLRAEDTALYYCAKDDDYSNYVYFDYWGQGTLVTVSS
VL: not shown
B2: H4H13325P2 (antibody, human IgG4, V domains shown)
VH: EVQLLESGGGWVQPGGSLRLSCAASGFAFSNYAMNWVRQTPGKGLEWVSVISSSGGNTYYADSVKGRFAISRDNSRDTLHLQMNRLRVEDTAVYYCAKEIRPYYDLSYYYGMDVWGQGTTVTVSS
VL: not shown
B3: H4H13291P2 (antibody, human IgG4, V domains shown)
VH: QVQLVESGGGVVQPGGSLRLSCAASGFTFSGYGMHWVRQAPGKGLEWMAVIWYDGSNDYYPDSVKGRFTISRDNSKNTLYLQMNSLRVEDTAVYYCARDAWDLLRSFDYWGQGTLVTVSS
VL: not shown
B4: H4H14638D (bispecific antibody, human IgG4, V domains shown)
VH 1: QVQLVESGGGVVQPGRSLRLSCAASGFTFSNFGMHWVRQAPGKGLEWVAGIWFDGSNKNYIDSVKGRFTISRDNSKNTLYLQMNSLRAEDTAVYYCAREGYDSGTDYIPYDIFDIWGQGTMVTVSS
VH 2: EVQLVESGGGLVQPGGSLRLSCAASGFIVTTNYMTWLRQAPGKGLEWVSLIYSSGHTYYADSVKGRFTISRHNSKNTLYLQMDSLRAEDTAVYYCASAFAADVFDIWGQGTMVTVSS
VL: not shown
B5: H4H16448D (bispecific antibody, human IgG4, V domains shown)
VH 1: QVQLVESGGGVVQPGRSLRLSCVASGFSFSNFGMHWVRQAPGKGLEWVAIIWYDGSNKYYSDSVKGRFTISRDNSKNTLYLQMNSLRVDDTAVYYCARFDRWKFDAFDIWGQGTMVTVSS
VH 2: EVQLVESGGGLVQPGGSLRLSCAASGFIVTTNYMTWLRQAPGKGLEWVSLIYSSGHTYYADSVKGRFTISRHNSKNTLYLQMDSLRAEDTAVYYCASAFAADVFDIWGQGTMVTVSS
VL: not shown
B6: H4H13302P2 (antibody, human IgG4, V domains shown)
VH: QVQLVESGGGVVQPGRSLRLSCAASGFTFSNFGMHWVRQAPGKGLEWVAGIWFDGSNKNYIDSVKGRFTISRDNSKNTLYLQMNSLRAEDTAVYYCAREGYDSGTDYIPYDIFDIWGQGTMVTVSS
VL: not shown
B7: H4H14637D (bispecific antibody, human IgG4, V domains shown)
VH 1: QVQLVESGGGVVQPGTSLRLSCVASGFTFRNFGMHWVRQAPGKGLEWVANIWFDGSNENYVESIQGRFTISRDNSKNTLNLQMNSLRAEDSAVYYCVREGILGTTNPYDAFDVWGQGTMVTVSS
VH 2: EVQLVESGGGLVQPGGSLRLSCAASGFIVTTNYMTWLRQAPGKGLEWVSLIYSSGHTYYADSVKGRFTISRHNSKNTLYLQMDSLRAEDTAVYYCASAFAADVFDIWGQGTMVTVSS
VL: not shown
B8: H4H14636D (bispecific antibody, human IgG4, V domains shown)
VH 1: EVQLVESGGGLVQPGGSLRLSCAASGFIFSNYEMNWVRQAPGKGLEWISYITSSGNMKYYADSVKGRFTISRDNDKNSLYLQMSSLRVEDTAVYYCVRGGRFLEWLTYYVMVVWGQGTTVTVSS
VH 2: EVQLVESGGGLVQPGGSLRLSCAASGFIVTTNYMTWLRQAPGKGLEWVSLIYSSGHTYYADSVKGRFTISRHNSKNTLYLQMDSLRAEDTAVYYCASAFAADVFDIWGQGTMVTVSS
VL: not shown
B9: H4H14641D (bispecific antibody, human IgG4, V domains shown)
VH 1: QVQLVESGGGVVQPGRSLRLSCSASGFSFSHFGMHWVRQVPGGGLEWVTSIWFDGSNRYYADSLKGRFTISRDNSKNTLYLEMNSLRAEDTAVYYCVREGILGTTNPYDVFDVWGQGTMVTVSS
VH 2: EVQLVESGGGLVQPGGSLRLSCAASGFIVTTNYMTWLRQAPGKGLEWVSLIYSSGHTYYADSVKGRFTISRHNSKNTLYLQMDSLRAEDTAVYYCASAFAADVFDIWGQGTMVTVSS
VL: not shown
B10: H4H16447D (bispecific antibody, human IgG4, V domains shown)
VH 1: QVQLVESGGGVVQPGRSLRLSCAASGFTFSSYAMHWVRQAPGRGLEWVAVIWHDGDVEYYVDSVKDRFTISRDNSKSTLYLQMNSLRAEDTALYYCAREAWDLLRPFDYWGQGTLVTVSS
VH 2: EVQLVESGGGLVQPGGSLRLSCAASGFIVTTNYMTWLRQAPGKGLEWVSLIYSSGHTYYADSVKGRFTISRHNSKNTLYLQMDSLRAEDTAVYYCASAFAADVFDIWGQGTMVTVSS
VL: not shown
B11: H4H16446D (bispecific antibody, human IgG4, V domains shown)
VH 1: QVQLVESGGGVVQPGRSLRLSCAVSGFTFSSYGMHWVRQAPGKGLEWVANIWYDGTNDYYPYSVKGRFTISRDNSQNTLYLQMNSLRAEDTAVYYCAREDFINYRSFDYWGQGTLVTVSS
VH 2: EVQLVESGGGLVQPGGSLRLSCAASGFIVTTNYMTWLRQAPGKGLEWVSLIYSSGHTYYADSVKGRFTISRHNSKNTLYLQMDSLRAEDTAVYYCASAFAADVFDIWGQGTMVTVSS
VL: not shown
B12: H4H16449D (bispecific antibody, human IgG4, V domains shown)
VH 1: QVQLVESGGGVVQPGRSLRLSCAASGFTFSSFAMHWVRQAPGKGLEWVAVIWYDGSNDYYAASVKGRFTISRDNSKNTLYLEMNRLRAEDTAVYHCARDNWNYWGGMDVWGQGTTVTVSS
VH 2: EVQLVESGGGLVQPGGSLRLSCAASGFIVTTNYMTWLRQAPGKGLEWVSLIYSSGHTYYADSVKGRFTISRHNSKNTLYLQMDSLRAEDTAVYYCASAFAADVFDIWGQGTMVTVSS
VL: not shown
B13: H4H13312P2 (antibody, human IgG4, V domains shown)
VH: EVQLVESGGGLVQPGGSLRLSCAASGFIVTTNYMTWLRQAPGKGLEWVSLIYSSGHTYYADSVKGRFTISRHNSKNTLYLQMDSLRAEDTAVYYCASAFAADVFDIWGQGTMVTVSS
VL: not shown
B14: H4H16445D (bispecific antibody, human IgG4, V domains shown)
VH 1: QVQLVESGGGVVQPGGSLRLSCAASGFTFSGYGMHWVRQAPGKGLEWMAVIWYDGSNDYYPDSVKGRFTISRDNSKNTLYLQMNSLRVEDTAVYYCARDAWDLLRSFDYWGQGTLVTVSS
VH 2: EVQLVESGGGLVQPGGSLRLSCAASGFIVTTNYMTWLRQAPGKGLEWVSLIYSSGHTYYADSVKGRFTISRHNSKNTLYLQMDSLRAEDTAVYYCASAFAADVFDIWGQGTMVTVSS
VL: not shown
B15: H1H13301P2 (antibody, V domains shown)
VH: QVQLVESGGGVVQPGTSLRLSCVASGFTFRNFGMHWVRQAPGKGLEWVANIWFDGSNENYVESIQGRFTISRDNSKNTLNLQMNSLRAEDSAVYYCVREGILGTTNPYDAFDVWGQGTMVTVSS
VL: not shown
B16: H4H13301P2 (antibody, human IgG4, V domains shown)
VH: QVQLVESGGGVVQPGTSLRLSCVASGFTFRNFGMHWVRQAPGKGLEWVANIWFDGSNENYVESIQGRFTISRDNSKNTLNLQMNSLRAEDSAVYYCVREGILGTTNPYDAFDVWGQGTMVTVSS
VL: not shown
B17: H4H13295P2 (antibody, human IgG4, V domains shown)
VH: QVQLVESGGGVVQPGRSLRVSCVVSGFTFSSFGMHWVRQAPDKGLEWVAVIWYDGSNDYYSDSVKGRFTISRDNSKNTLFLQMNRLRAEDTAVYYCARANNWNRFDAFDLWGQGTMVTVSS
VL: not shown
B18: H4H13313P2 (antibody, human IgG4, V domains shown)
VH: QVQLVESGGGVVQPGRSLRLSCSASGFSFSHFGMHWVRQVPGGGLEWVTSIWFDGSNRYYADSLKGRFTISRDNSKNTLYLEMNSLRAEDTAVYYCVREGILGTTNPYDVFDVWGQGTMVTVSS
VL: not shown
B19: H1H13316P2 (antibody, V domains shown)
VH: EVQLVESGGGLVQPGGSLRLSCAASGFTFRSYVMSWFRQAPGKGLEWVSGMSGSGGSTSYADSVKGRFTISRDNSKNTLYLLMNSLRTEDTAVYYCAKENGANWNYGYYGMDVWGQGTTVTVSS
VL: not shown
B20: H4H13316P2 (antibody, human IgG4, V domains shown)
VH: EVQLVESGGGLVQPGGSLRLSCAASGFTFRSYVMSWFRQAPGKGLEWVSGMSGSGGSTSYADSVKGRFTISRDNSKNTLYLLMNSLRTEDTAVYYCAKENGANWNYGYYGMDVWGQGTTVTVSS
VL: not shown

biological target: human MET (c-Met, hepatocyte growth factor receptor), endogenous on human cell lines (human, UniProt P08581 25-1390); assay: cell-based or functional assay
Throughout, for % Inhibition (HEK293/SRE-Luc Blocking Activity, 1 h mAb pre-bind): test concentration or dose not given here.

human MET (c-Met, hepatocyte growth factor receptor), endogenous on human cell lines, sequence (P08581 25-1390 limits assumed, form in doubt): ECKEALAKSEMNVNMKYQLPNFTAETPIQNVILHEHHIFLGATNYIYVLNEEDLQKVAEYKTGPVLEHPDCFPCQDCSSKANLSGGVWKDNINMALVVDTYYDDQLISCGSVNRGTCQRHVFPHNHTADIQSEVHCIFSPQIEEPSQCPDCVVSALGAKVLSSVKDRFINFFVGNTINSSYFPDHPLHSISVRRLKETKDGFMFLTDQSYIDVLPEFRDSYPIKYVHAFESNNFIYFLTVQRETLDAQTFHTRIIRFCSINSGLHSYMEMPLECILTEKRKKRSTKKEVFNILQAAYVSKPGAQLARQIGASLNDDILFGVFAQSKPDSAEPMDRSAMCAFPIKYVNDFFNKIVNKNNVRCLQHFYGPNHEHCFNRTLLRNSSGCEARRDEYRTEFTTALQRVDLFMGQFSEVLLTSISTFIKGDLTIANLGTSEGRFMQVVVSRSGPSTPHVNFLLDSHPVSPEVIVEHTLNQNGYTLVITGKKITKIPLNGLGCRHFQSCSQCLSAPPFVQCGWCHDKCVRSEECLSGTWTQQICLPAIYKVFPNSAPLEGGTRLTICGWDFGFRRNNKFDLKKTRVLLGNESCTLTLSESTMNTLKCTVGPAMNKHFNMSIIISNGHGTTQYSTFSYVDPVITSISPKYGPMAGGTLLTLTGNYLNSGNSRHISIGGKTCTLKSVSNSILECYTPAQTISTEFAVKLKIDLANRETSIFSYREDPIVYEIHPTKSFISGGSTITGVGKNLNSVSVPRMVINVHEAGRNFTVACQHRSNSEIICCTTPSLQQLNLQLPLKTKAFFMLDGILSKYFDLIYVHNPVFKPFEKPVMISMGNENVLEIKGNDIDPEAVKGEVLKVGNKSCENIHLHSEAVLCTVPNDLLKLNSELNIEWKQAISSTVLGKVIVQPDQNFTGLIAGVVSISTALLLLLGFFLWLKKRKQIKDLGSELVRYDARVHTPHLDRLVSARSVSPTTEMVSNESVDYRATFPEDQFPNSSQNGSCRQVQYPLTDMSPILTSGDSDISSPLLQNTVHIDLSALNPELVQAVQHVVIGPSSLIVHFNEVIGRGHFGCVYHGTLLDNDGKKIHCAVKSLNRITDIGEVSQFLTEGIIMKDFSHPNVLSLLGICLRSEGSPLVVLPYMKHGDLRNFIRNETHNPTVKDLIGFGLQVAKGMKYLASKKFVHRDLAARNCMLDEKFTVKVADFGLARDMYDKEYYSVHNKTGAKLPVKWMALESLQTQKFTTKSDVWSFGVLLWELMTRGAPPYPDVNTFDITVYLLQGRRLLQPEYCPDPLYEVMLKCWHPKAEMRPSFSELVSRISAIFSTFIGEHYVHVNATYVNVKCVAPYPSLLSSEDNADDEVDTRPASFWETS

Binder	EC50 (Ligand (HGF)-Independent HEK293/SRE-Luc Activation) [nM]	% Inhibition (HEK293/SRE-Luc Blocking Activity, 1 h mAb pre-bind) [%]	Fold Response (Ligand (HGF)-Independent HEK293/SRE-Luc Activation) [fold]	IC50 (HEK293/SRE-Luc Blocking Activity, 1 h mAb pre-bind) [nM]
B1	0.013	–	–	–
B2	0.19	69	4.3	0.013
B3	0.39	61	2.7	0.13
B4	5.9	79	2.6	1.1
B5	0.91	87	4.3	0.62
B6	–	45	1.8	1.6
B7	4.1	73	2.1	–
B8	0.28	74	2.8	–
B9	84	75	4.4	2.7
B10	1.4	76	–	–
B11	1.4	83	4	1
B12	0.42	85	4.2	0.32
B13	0.12	48	–	–
B14	1	81	4.3	0.52
B15	–	42	1.4	3.3
B16	–	40	1.6	1.5
B17	0.3	70	2.8	0.055
B18	–	47	1.2	2.3
B19	–	86	1.7	0.04
B20	0.047	74	2.3	0.0078
